From patent US20250205375A1, “HER3 RADIOIMMUNOTHERAPY FOR THE TREATMENT OF SOLID CANCERS” (ACTINIUM PHARMACEUTICALS, INC., priority 2023, published 2025)

Legend:
PARP = conditions: cited from earlier work
[1] = tested on: triple-negative breast cancers (TNBC); conditions: TNBC patients, cited from earlier work
[2] = tested on: OVCAR5 cell line xenograft; experiment: Human OVCAR5 cell line xenograft ovarian cancer mouse model, tumor growth; type: in vivo; conditions: 10 mg/kg on day 1
Protocol: (§1) FIG. 17A is a graph showing the effects on tumor growth in a human OVCAR5 cell line xenograft ovarian cancer mouse model for ^225Ac-labeled HER3 antibody, in a single dose of 0.2 μCi or 0.4 μCi, versus standard of care Bevacizumab (10 mg/kg), ^225Ac-labeled non-specific IgG control (0.4 μCi), and naked (cold) HER3 mAb control (10 μg). All agents/controls were dosed on day 1.
as §1, with “17B” for “17A”, “^177Lu-labeled” for “^225Ac-labeled”, “200” for “0.2”, “400” for “0.4”, “(400” for “(0.4”

total HER3 = molecular target: T1, total HER3 (Homo sapiens, UniProt P21860); conditions: 40 mg/kg; cited from earlier work
T1 construct: host or cells: tumour biopsies of patients

HER3 = HER3 (Homo sapiens, UniProt P21860); conditions: cited from earlier work
HER3-expressing tumors = conditions: 0.1 mg/kg and 0.3 mg/kg; cited from earlier work
surface HER3 = molecular target: T2, surface HER3 (Homo sapiens, UniProt P21860); conditions: across all dose levels tested (100-2000 mg); cited from earlier work
T2 construct: host or cells: tumour biopsies of patients

human recombinant HER3 = human recombinant HER3 (human, UniProt P21860 20-643); experiment: ELISA, plate coated with human recombinant HER3, serial dilutions 0-100 µg/ml, anti-human IgG F(ab')2-HRP secondary
Protocol: A secondary antibody (Goat Anti-human IgG F (ab′) 20-HRP) was added and incubated for 30 min on ice followed by color development using […] for 10 min.

[3] = tested on: DU145 human prostate cancer line; experiment: Fluorescence flow cytometry cell binding assay, DU145
Excerpt: (§2) FIG. 14 is a graph showing the fluorescence flow cytometry cell binding assay results for naked (unlabeled) and DOTA-conjugated (specifically, p-SCN-Bn-DOTA-conjugated) anti-HER3 antibodies AT02 and AV-203, versus nonstained control, secondary antibody (SA) only control, and non-specific IgG primary antibody control, for three human prostate cancer lines, DU145, 22RV1 and LnCAP.

[4] = tested on: 22RV1 human prostate cancer line; experiment: Fluorescence flow cytometry cell binding assay, 22RV1
Excerpt: as §2

[5] = tested on: LnCAP human prostate cancer line; experiment: Fluorescence flow cytometry cell binding assay, LnCAP
Excerpt: as §2

[6] = tested on: ACHN human renal cancer cells xenograft; experiment: ACHN human renal cell carcinoma xenograft in Balb/c nude mice, tumor growth; type: in vivo, mouse; conditions: 100 μg on day 1, intravenously
Protocol: In more detail, the experiment was performed as follows. Female Balb/c nude mice were subcutaneously injected with 5×10^6 ACHN human renal cancer cells (ATCC; CRL-1611). […] Drug treatments were administered orally for vehicle (PBS) and tivozanib or intravenously for unlabeled/unconjugated HER3 monoclonal antibody (HER3), HER3-ARC (Actinium-225 labeled HER3 antibody) and HER3-ADC (patritumab deruxtecan). Single agents or combinations were dosed as follows: vehicle (daily for 14 days), unlabeled/unconjugated HER3 antibody (100 μg on day 1), HER3-ADC (3 mg/kg on day 1 and 21), HER3-ARC (0.4 μCi on day 1 and 0.2 μCi on day 21), tivozanib (0.3 mg/kg daily for 14 days), tivozanib (0.3 mg/kg daily for 14 days) with HER3-ARC (0.4 μCi on day 16), and HER3-ARC (0.4 μCi on day 1) with tivozanib (0.3 mg/kg starting day 3, daily for 14 days). […] HER3-ARC was always administered in a total protein dose of 50 μg irrespective of the radiation dose. Tumor volumes were measured twice weekly by caliper and body weights were monitored. The mean tumor volume for each group was analyzed and graphed using GraphPad Prism software and statistical analysis is performed with Tukey's multiple comparisons test.

NC(=O)c1cccc2cn(-c3ccc([C@@H]4CCCNC4)cc3)nc12 [niraparib]
IC50 values (PARP): nanomolar range

O=C(c1cc(Cc2n[nH]c(=O)c3ccccc23)ccc1F)N1CCN(C(=O)C2CC2)CC1 [olaparib]
disease stabilization rate ([1]; BRCA1/2-mutant vs non-mutant): higher disease stabilization rate in BRCA1/2-mutant compared to non-mutant patients | sustained responses ([1]; either cohort): no sustained responses

CNCc1ccc(-c2[nH]c3cc(F)cc4c3c2CCNC4=O)cc1 [rucaparib]
IC50 values (PARP): nanomolar range

Cn1ncnc1[C@H]1c2n[nH]c(=O)c3cc(F)cc(c23)N[C@@H]1c1ccc(F)cc1 [talazoparib]
IC50 values (PARP): picomolar range

C[C@]1(c2nc3c(C(N)=O)cccc3[nH]2)CCCN1 [veliparib]
IC50 values (PARP): nanomolar range

Bevacizumab: standard of care agent; VEGF inhibitor [reference compound]
antitumor efficacy (tumor growth) [2]: minimal effect

LJM716: HER3-targeting antibody from Novartis
decrease in total HER3 levels, paired tumor biopsy samples (total HER3): three out of five

lumretuzumab: HER3 antibody from Roche
downregulation of HER3 (HER3; 1-10 mg/kg): dose-dependent | HER3 target downregulation (HER3; lowest dose 0.3 mg/kg): did not result in HER3 target downregulation | control of HER3-expressing tumors (HER3-expressing tumors): ineffective | downregulation of surface HER3 in serial tumor biopsies (surface HER3): 92 % of patients

B1: 225Ac-HER3-ARC (Actinium-225 labeled, p-SCN-Bn-DOTA-conjugated anti-HER3 IgG monoclonal antibody, heavy chain SEQ ID NO:77 and light chain SEQ ID NO:78) (antibody, V domains shown)
VH: QVQLVESGGGLVKPGGSLRLSCAASGFTFSDYAMSWIRQAPGKGLEWVSTISDGGTYTYYPDSVKGRFTISRDNAKNSLYLQMNSLRAEDTAVYYCAREWGDYDGFDYWGQGTLVTVSS
VL: DIQMTQSPSSLSASVGDRVTITCRASQEISGYLSWYQQKPGKAPKRLIYAASTLDSGVPSRFSGSGSGTEFTLTISSLQPEDFATYYCLQYDSYPYTFGQGTKLEIKR
modifications: conjugated to the chelator DOTA using p-SCN-Bn-DOTA and radiolabeled via chelation with Actinium-225; sites of conjugation not stated
notes: Antibody radioconjugate of m1; also called Ac225 labeled DOTA-conjugated anti-HER3 monoclonal antibody
EC50 (human recombinant HER3): 1.7 ng/mL

B2: anti-HER3 IgG monoclonal antibody consisting of heavy chain SEQ ID NO:77 and light chain SEQ ID NO:78 (unmodified) (antibody, V domains shown)
VH: B1 VH
VL: B1 VL
notes: IgG; Detected with an anti-human IgG secondary antibody; also called unmodified anti-HER3 mAb; unmodified anti-HER3 antibody
EC50 (human recombinant HER3): 2.2 ng/mL

B3: DOTA conjugated AV-203 (conjugate)
VH: B1 VH
VL: DIQMTQSPSSLSASVGDRVTITCRASQEISGYLSWYQQKPGKAPKRLIYAASTLDSGVPSRFSGSGSGTEFTLTISSLQPEDFATYYCLQYDSYPYTFGQGTKLEIK
cell binding [3]: specifically and comparably bound | cell binding [4]: specifically and comparably bound | cell binding [5]: specifically and comparably bound

B4: AV-203: anti-HER3 monoclonal antibody from AVEO Oncology; heavy chain variable region SEQ ID NO:21, light chain variable region SEQ ID NO:22 (antibody, V domains shown)
VH: B1 VH
VL: B3 VL
tumor growth (mean tumor volume) [6]: no effect on tumor growth | cell binding [3]: specifically and comparably bound | cell binding [4]: specifically and comparably bound | cell binding [5]: specifically and comparably bound
